# Experimental data reported in paper PMC9324194.
# pKd: −log10 of the molar value.
# Target: Cy3-APE1 (human) (UniProt P27695)
# Assay: FRET titration
# Settings: N1 = tetrahydrofuran (THF), EMSA: 2 uM protein and DNA, 20 mM potassium phosphate pH 7.0, 50 mM NaCl, 5 mM MgCl2, 2 mM DTT, 0.01% Tween-20, 30 min room temperature, gel at 4 °C
# Sequence of UniProt P27695 (P27695 whole entry): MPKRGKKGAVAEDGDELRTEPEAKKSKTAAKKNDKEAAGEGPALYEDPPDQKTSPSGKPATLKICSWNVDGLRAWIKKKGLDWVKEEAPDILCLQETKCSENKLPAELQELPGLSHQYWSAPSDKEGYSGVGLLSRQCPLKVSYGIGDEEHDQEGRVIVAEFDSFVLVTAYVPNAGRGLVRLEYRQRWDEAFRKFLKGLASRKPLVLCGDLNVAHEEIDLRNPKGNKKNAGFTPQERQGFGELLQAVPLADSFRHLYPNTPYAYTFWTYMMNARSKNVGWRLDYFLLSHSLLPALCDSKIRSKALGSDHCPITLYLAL
sequence,measurement,value
NCGGTCGATCGTAAGATCGACCGTGCGCTGGAGCTTGCTCCAGCGC [Cy5-P (Cy5-labelled product)],pKd,8.30
